Source: US20260242839A1, “GLYCOSIDE PRODUCT BIOSYNTHESIS AND RECOVERY” (Manus Bio Inc., priority 2023, published 2026)

B1: SEQ ID NO: 71: AtUGT73C3 (Arabidopsis thaliana) (protein, listed as Arabidopsis thaliana)
chain: MATEKTHQFHPSLHFVLFPFMAQGHMIPMIDIARLLAQRGVTITIVTTPHNAARFKNVLNRAIESGLAINILHVKFPYQEFGLPEGKENIDSLDSTELMVPFFKAVNLLEDPVMKLMEEMKPRPSCLISDWCLPYTSIIAKNFNIPKIVFHGMGCFNLLCMHVLRRNLEILENVKSDEEYFLVPSFPDRVEFTKLQLPVKANASGDWKEIMDEMVKAEYTSYGVIVNTFQELEPPYVKDYKEAMDGKVWSIGPVSLCNKAGADKAERGSKAAIDQDECLQWLDSKEEGSVLYVCLGSICNLPLSQLKELGLGLEESRRSFIWVIRGSEKYKELFEWMLESGFEERIKERGLLIKGWAPQVLILSHPSVGGFLTHCGWNSTLEGITSGIPLITWPLFGDQFCNQKLVVQVLKAGVSAGVEEVMKWGEEDKIGVLVDKEGVKKAVEELMGDSDDAKERRRRVKELGELAHKAVEKGGSSHSNITLLLQDIMQLAQFKN
B2: SEQ ID NO: 33: SgUGT720-269-1 (Siraitia grosvenorii) (protein)
chain: MEDRNAMDMSRIKYRPQPLRPASMVQPRVLLFPFPALGHVKPFLSLAELLSDAGIDVVFLSTEYNHRRISNTEALASRFPTLHFETIPDGLPPNESRALADGPLYFSMREGTKPRFRQLIQSLNDGRWPITCIITDIMLSSPIEVAEEFGIPVIAFCPCSARYLSIHFFIPKLVEEGQIPYADDDPIGEIQGVPLFEGLLRRNHLPGSWSDKSADISFSHGLINQTLAAGRASALILNTFDELEAPFLTHLSSIFNKIYTIGPLHALSKSRLGDSSSSASALSGFWKEDRACMSWLDCQPPRSVVFVSFGSTMKMKADELREFWYGLVSSGKPFLCVLRSDVVSGGEAAELIEQMAEEEGAGGKLGMVVEWAAQEKVLSHPAVGGFLTHCGWNSTVESIAAGVPMMCWPILGDQPSNATWIDRVWKIGVERNNREWDRLTVEKMVRALMEGQKRVEIQRSMEKLSKLANEKVVRGINLHPTISLKKDTPTTSEHPRHEFENMRGMNYEMLVGNAIKSPTLTKK
B3: SEQ ID NO: 13: Synthetic UGT enzyme (MbUGT1,2.2) (protein)
chain: MATKGSSGMSLAERFWLTLSRSSLVVGRSCVEFEPETVPLLSTLRGKPITFLGLMPPLHEGRREDGEDATVRWLDAQPAKSVVYVALGSEVPLGVEKVHELALGLELAGTRFLWALRKPTGVSDADLLPAGFEERTRGRGVVATRWVPQMSILAHAAVGAFLTHCGWNSTIEGLMFGHPLIMLPIFGDQGPNARLIEAKNAGLQVARNDGDGSFDREGVAAAIRAVAVEEESSKVFQAKAKKLQEIVADMACHERYIDGFIQQLRSYKDDSGYSSSYAAAAGMHVVICPWLAFGHLLPCLDLAQRLASRGHRVSFVSTPRNISRLPPVRPALAPLVAFVALPLPRVEGLPDGAESTNDVPHDRPDMVELHRRAFDGLAAPFSEFLGTACADWVIVDVFHHWAAAAALEHKVPCAMMLLGSAEMIASIADERLEHAETESPAAAGQGRPAAAPTFEVARMKLIR
B4: SEQ ID NO: 54: UGT enzyme (Ziziphus jujube) (protein, listed as Ziziphus jujuba)
chain: MMERQRSIKVLMFPWLAHGHISPFLELAKRLTDRNFQIYFCSTPVNLTSVKPKLSQKYSSSIKLVELHLPSLPDLPPHYHTTNGLALNLIPTLKKAFDMSSSSFSTILSTIKPDLLIYDFLQPWAPQLASCMNIPAVNFLSAGASMVSFVLHSIKYNGDDHDDEFLTTELHLSDSMEAKFAEMTESSPDEHIDRAVTCLERSNSLILIKSFRELEGKYLDYLSLSFAKKVVPIGPLVAQDTNPEDDSMDIINWLDKKEKSSTVFVSFGSEYYLTNEEMEEIAYGLELSKVNFIWVVRFPLGQKMAVEEALPKGFLERVGEKGMVVEDWAPQMKILGHSSIGGFVSHCGWSSLMESLKLGVPIIAMPMQLDQPINAKLVERSGVGLEVKRDKNGRIEREYLAKVIREIVVEKARQDIEKKAREMSNIITEKGEEEIDNVVEELAKLCGM
B5: SEQ ID NO: 72: HvUGT B1 (Hordeum vulgare subsp. Vulgare) (protein)
chain: MAQAESERMRVVMFPWLAHGHINPYLELAKRLIASASGDHHLDVVVHLVSTPANLAPLAHHQTDRLRLVELHLPSLPDLPPALHTTKGLPARLMPVLKRACDLAAPRFGALLDELCPDILVYDFIQPWAPLEAEARGVPAFHFATCGAAATAFFIHCLKTDRPPSAFPFESISLGGVDEDAKYTALVTVREDSTALVAERDRLPLSLERSSGFVAVKSSADIERKYMEYLSQLLGKEIIPTGPLLVDSGGSEEQRDGGRIMRWLDGEEPGSVVFVSFGSEYFMSEHQMAQMARGLELSGVPFLWVVRFPNAEDDARGAARSMPPGFEPELGLVVEGWAPQRRILSHPSCGAFLTHCGWSSVLESMAAGVPMVALPLHIDQPLNANLAVELGAAAARVKQERFGEFTAEEVARAVRAAVKGKEGEAARRRARELQEVVARNNGNDGQIATLLQRMARLCGKDQAVPN
modifications: Hordeum vulgare
B6: SEQ ID NO: 84: UGT85C1 (Stevia rebaudiana) (protein, listed as Stevia rebaudiana)
chain: MDQMAKIDEKKPHVVFIPFPAQSHIKCMLKLARILHQKGLYITFINTDTNHERLVASGGTQWLENAPGFWFKTVPDGFGSAKDDGVKPTDALRELMDYLKTNFFDLFLDLVLKLEVPATCIICDGCMTFANTIRAAEKLNIPVILFWTMAACGFMAFYQAKVLKEKEIVPVKDETYLTNGYLDMEIDWIPGMKRIRLRDLPEFILATKQNYFAFEFLFETAQLADKVSHMIIHTFEELEASLVSEIKSIFPNVYTIGPLQLLLNKITQKETNNDSYSLWKEEPECVEWLNSKEPNSVVYVNFGSLAVMSLQDLVEFGWGLVNSNHYFLWIIRANLIDGKPAVMPQELKEAMNEKGFVGSWCSQEEVLNHPAVGGFLTHCGWGSIIESLSAGVPMLGWPSIGDQRANCRQMCKEWEVGMEIGKNVKRDEVEKLVRMLMEGLEGERMRKKALEWKKSATLATCCNGSSSLDVEKLANEIKKLSRN

How the values were obtained:
Format in all cases: cell-based, E. coli
mogrol [1] = test: bioconversion of mogrol into mogroside intermediates; settings: 96-well plates, 48 hours, in excess of empty vector control; FIG. 17A
Experimental: The engineered bacterial strains described herein can be used for the glycosylation of a variety of substrates, including but not limited to terpenoid glycosides. In some aspects, the invention identifies UGT enzymes that are active on the mogrol or mogroside scaffolds. FIGS. 17A and B show the bioconversion of mogrol into mogroside intermediates. Engineered E. coli strains (chassis strain) expressing UGT enzymes were incubated in 96-well plates with mogrol. Product formation was examined after 48 hours. Reported values are those in excess of the empty vector control. Products were measured on LC-MS/MS with authentic standards. […] IE and/or Mog. IIE formed.

Mog. IA = test: bioconversion of Mog. IA into Mog. IIE; settings: 96-well plates, 37° C., 48 hours; FIG. 18A
Experimental: (§1) IE (FIG. 18B) into Mog. IIE. In the experiment, engineered E. coli chassis strains expressing UGT enzymes, SEQ ID NO: 84, SEQ ID NO: 71, or SEQ ID NO: 33 were incubated in fermentation media containing Mog. IA (FIG. 18A) or Mog. IE (FIG. 18B) in 96-well plates at 37° C. Product formation was examined after 48 hours. Products were measured on LC-MS/MS with authentic standards. The values of Mog. IIE levels in excess of the empty vector control were calculated. […] IE into Mog. IIE.

mogrol [2] = test: primary glycosylation at C3 and C24 hydroxyls of mogrol by cells expressing UGT enzymes; settings: mogrol fed; 37° C., 48 hrs; LCMS/MS
Experimental: Specifically, mogrol was fed to cells expressing various UGT enzymes. Reactions were incubated at 37° C. for 48 hrs. Products were quantified by LCMS/MS with authentic standards of each compound.

Mog. IE = test: bioconversion of Mog. IE into Mog. IIE; settings: 96-well plates, 37° C., 48 hours; FIG. 18B
Experimental: as §1

Mog. II-E = test: production of Mog.III or siamenoside from Mog. II-E; settings: 37° C., 48 hr; FIG. 19
Experimental: II-E. In the experiment, engineered E. coli strains expressing UGT enzymes SEQ ID NO: 72, SEQ ID NO: 54 or SEQ ID NO: 13 were grown in fermentation media containing Mog. II-E at 37° C. for 48 hr. Products were quantified by LCMS/MS with authentic standards of each compound. […] IIE to Mog.III.

Mog. IIE or Mog. IE = test: branched glycosylation reactions by cells expressing UGT enzymes; settings: Mog. IIE or Mog. IE fed; 37° C., 48 hr; LC-MS/MS
Experimental: Mog. IIE or Mog. IE was fed to cells expressing various UGT enzymes. Reactions were incubated at 37° C. for 48 hr. Products were quantified by LC-MS/MS with authentic standards of each compound. “Indirect” evidence means that consumption of substrate was observed.

Row | Molecule | product formation from mogrol (mogrol [1]) | bioconversion of Mog.IA into Mog.IIE (Mog. IA) | C3 O-Glucosylation (mogrol [2]) | C24 O-Glucosylation (mogrol [2]) | bioconversion of Mog. IE into Mog. IIE (Mog. IE) | bioconversion of Mog. IIE to Mog.III (Mog. II-E) | production of siamenoside from Mog. II-E (Mog. II-E) | C3 1-2 (Mog. IIE or Mog. IE) | C3 1-6 (Mog. IIE or Mog. IE) | C24 1-2 (Mog. IIE or Mog. IE) | C24 1-6 (Mog. IIE or Mog. IE)
1 | B1 | largely produced Mog.IA from mogrol | able to catalyze bioconversion of Mog.IA into Mog.IIE | Yes | Yes | able to catalyze the bioconversion of Mog. IE into Mog. IIE |  |  |  |  |  | 
2 | B2 | largely produced Mog.IA from mogrol |  | Yes | Yes | able to catalyze the bioconversion of Mog. IE into Mog. IIE |  |  |  |  |  | 
3 | B3 |  |  |  |  |  | able to catalyze bioconversion of Mog. IIE to Mog.III | production of substantial amounts of siamenoside | Yes | Yes | Yes | Yes
4 | B4 |  |  |  |  |  | able to catalyze bioconversion of Mog. IIE to Mog.III |  | No | Yes | No | Yes
5 | B5 |  |  |  |  |  | able to catalyze bioconversion of Mog. IIE to Mog.III |  | No | Yes | No | No
6 | B6 |  | able to catalyze bioconversion of Mog.IA into Mog.IIE | Yes | Yes | able to catalyze the bioconversion of Mog. IE into Mog. IIE |  |  |  |  |  | 
